Reference: patent publication US20200299408A1 (Genentech, published 2020)

Columns and labels:
Assay in all cases: SPR (Biacore 4000): CD3εγ variant captured from the periplasmic fraction on UCHT1v9; analyte a bispecific antibody with one 38E4v1 arm and one irrelevant arm, 0.39-100 nM
E5A = molecular target: T1, E5A
T1 construct: Residue number counts from the N-terminus of CD3ε; also called CD3εγ E5A; CD3 mutant E5A
T1 single chain CD3ε-26mer linker-CD3γ: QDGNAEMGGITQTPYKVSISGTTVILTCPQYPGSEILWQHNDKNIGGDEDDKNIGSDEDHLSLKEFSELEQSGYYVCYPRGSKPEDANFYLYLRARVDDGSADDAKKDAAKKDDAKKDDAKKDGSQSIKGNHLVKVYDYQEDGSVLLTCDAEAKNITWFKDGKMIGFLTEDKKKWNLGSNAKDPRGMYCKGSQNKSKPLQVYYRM
Method: (§1) The secreted CD3εγ variants were captured from the crude periplasmic fraction using anti-CD3 antibody UCHT1v9. UCHT1v9 was immobilized on a CM5 serios S chip through amine coupling using the anti-human IgG (Fc) antibody capture kit (BR-1008-39) from GE Healthcare. SPR measurements were performed on the Biacore 4000 instrument, utilizing kinetic evaluation software. In order to measure monovalent binding affinities, anti-CD3 bispecific antibodies were used in which one arm was the anti-CD3 to be tested and the arm recognized an irrelevant antigen. The bispecific anti-CD3 antibodies were passed over the captured supernatant in a concentration series of two-fold dilutions from 0.39 to 100 nM. The resulting kinetics (FIG. 13D) were measured and calculated using Biacore 4000 BIAevaluation software (product code 28-9664-57).

G8A = molecular target: T2, G8A
T2 construct: Residue number counts from the N-terminus of CD3ε; also called CD3εγ G8A
T2 single chain CD3ε-26mer linker-CD3γ: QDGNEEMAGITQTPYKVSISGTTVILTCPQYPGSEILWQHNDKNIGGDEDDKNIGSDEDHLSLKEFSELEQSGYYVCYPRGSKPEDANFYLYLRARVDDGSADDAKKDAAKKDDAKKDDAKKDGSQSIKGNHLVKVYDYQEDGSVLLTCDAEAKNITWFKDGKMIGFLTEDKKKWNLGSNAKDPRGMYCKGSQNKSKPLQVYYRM
Method: as §1

G9A = molecular target: T3, G9A
T3 construct: Residue number counts from the N-terminus of CD3ε; also called CD3εγ G9A
T3 single chain CD3ε-26mer linker-CD3γ: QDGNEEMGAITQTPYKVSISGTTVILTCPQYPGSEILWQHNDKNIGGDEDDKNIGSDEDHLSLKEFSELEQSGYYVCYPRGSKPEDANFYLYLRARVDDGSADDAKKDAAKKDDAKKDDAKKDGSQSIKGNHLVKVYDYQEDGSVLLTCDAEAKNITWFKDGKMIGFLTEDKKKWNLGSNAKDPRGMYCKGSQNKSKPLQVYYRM
Method: as §1

M7A = molecular target: T4, M7A
T4 construct: Residue number counts from the N-terminus of CD3ε; also called CD3εγ M7A
T4 single chain CD3ε-26mer linker-CD3γ: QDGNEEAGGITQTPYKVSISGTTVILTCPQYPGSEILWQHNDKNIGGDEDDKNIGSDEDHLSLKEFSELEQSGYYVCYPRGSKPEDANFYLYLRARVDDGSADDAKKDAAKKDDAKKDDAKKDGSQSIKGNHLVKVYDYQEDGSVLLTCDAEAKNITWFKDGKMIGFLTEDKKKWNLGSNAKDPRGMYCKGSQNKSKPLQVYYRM
Method: as §1

D2A = molecular target: T5, D2A
T5 construct: Residue number counts from the N-terminus of CD3ε; also called CD3εγ D2A; CD3 mutant D2A
T5 single chain CD3ε-26mer linker-CD3γ: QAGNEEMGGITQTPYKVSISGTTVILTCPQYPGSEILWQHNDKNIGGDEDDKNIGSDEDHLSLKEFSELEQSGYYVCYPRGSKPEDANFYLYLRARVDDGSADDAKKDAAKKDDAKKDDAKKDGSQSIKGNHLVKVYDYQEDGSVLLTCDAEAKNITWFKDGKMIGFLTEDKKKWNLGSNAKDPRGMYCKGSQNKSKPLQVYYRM
Method: as §1

N4A = molecular target: T6, N4A
T6 construct: Residue number counts from the N-terminus of CD3ε; also called CD3εγ N4A; CD3 mutant N4A
T6 single chain CD3ε-26mer linker-CD3γ: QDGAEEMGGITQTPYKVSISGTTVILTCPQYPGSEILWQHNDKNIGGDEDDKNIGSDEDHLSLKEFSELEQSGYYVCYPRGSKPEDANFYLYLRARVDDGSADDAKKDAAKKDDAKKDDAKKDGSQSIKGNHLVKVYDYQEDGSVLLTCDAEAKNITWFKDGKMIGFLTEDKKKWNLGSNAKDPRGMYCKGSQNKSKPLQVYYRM
Method: as §1

G3A = molecular target: T7, G3A
T7 construct: Residue number counts from the N-terminus of CD3ε; also called CD3εγ G3A; CD3 mutant G3A
T7 single chain CD3ε-26mer linker-CD3γ: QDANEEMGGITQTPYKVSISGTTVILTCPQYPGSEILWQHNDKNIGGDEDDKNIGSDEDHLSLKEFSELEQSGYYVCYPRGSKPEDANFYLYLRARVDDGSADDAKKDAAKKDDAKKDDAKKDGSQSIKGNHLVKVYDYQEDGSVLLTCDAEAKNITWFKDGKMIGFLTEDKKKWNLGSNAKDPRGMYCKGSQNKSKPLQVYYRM
Method: as §1

Kd (E5A): 7 nM | Kd (G8A): 8 nM | Kd (G9A): 6 nM | Kd (M7A): 13 nM | Kd (D2A): 1500 nM | Kd (N4A): 3 nM | Kd (G3A): 7 nM
B1: hu38E4.v1 Fab (Fab, V domains shown)
VH: EVQLVQSGAEVKKPGASVKVSCKASGFTFTSYYIHWVRQAPGQGLEWIGWIYPENDNTKYNEKFKDRVTITADTSTSTAYLELSSLRSEDTAVYYCARDGYSRYYFDYWGQGTLVTVSS
VL: DIVMTQSPDSLAVSLGERATINCKSSQSLLNSRTRKNYLAWYQQKPGQSPKLLIYWTSTRKSGVPDRFSGSGSGTDFTLTISSLQAEDVAVYYCKQSFILRTFGQGTKVEIK
notes: Humanized anti-CD3 Fab; Point mutants of it were expressed as Fabs in HEK293 cells
